In paper PMC8316566:

Target: T1, MRM3 (human (endogenous in HEK293)), Q9HC36
T1 chain: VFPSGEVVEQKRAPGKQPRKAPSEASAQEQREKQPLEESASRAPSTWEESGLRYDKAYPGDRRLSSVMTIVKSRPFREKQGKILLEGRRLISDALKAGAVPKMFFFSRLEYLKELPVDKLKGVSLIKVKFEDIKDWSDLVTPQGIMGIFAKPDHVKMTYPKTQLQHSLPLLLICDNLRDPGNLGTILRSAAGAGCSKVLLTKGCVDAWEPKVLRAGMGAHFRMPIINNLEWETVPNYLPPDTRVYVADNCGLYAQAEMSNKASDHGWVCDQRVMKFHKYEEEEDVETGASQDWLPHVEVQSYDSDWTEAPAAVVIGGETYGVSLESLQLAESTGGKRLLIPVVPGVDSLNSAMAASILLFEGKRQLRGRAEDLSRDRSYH
Assay: cryo-EM structure; native 39S pre-mitoribosomal particles isolated by anti-Flag affinity purification (MALSU1 or GTPBP10 bait; state 1 also with particles from a uL17 bait) from HEK293 cells; single-particle analysis, average resolutions between 3.1 Å and 5.7 Å; factors fitted as rigid-body homology models or crystal structures
Conditions: remark: other sources report otherwise

- stoichiometry N: 2
B1: MRM3, Q9HC36 41-420 (natural protein)
chain: VFPSGEVVEQKRAPGKQPRKAPSEASAQEQREKQPLEESASRAPSTWEESGLRYDKAYPGDRRLSSVMTIVKSRPFREKQGKILLEGRRLISDALKAGAVPKMFFFSRLEYLKELPVDKLKGVSLIKVKFEDIKDWSDLVTPQGIMGIFAKPDHVKMTYPKTQLQHSLPLLLICDNLRDPGNLGTILRSAAGAGCSKVLLTKGCVDAWEPKVLRAGMGAHFRMPIINNLEWETVPNYLPPDTRVYVADNCGLYAQAEMSNKASDHGWVCDQRVMKFHKYEEEEDVETGASQDWLPHVEVQSYDSDWTEAPAAVVIGGETYGVSLESLQLAESTGGKRLLIPVVPGVDSLNSAMAASILLFEGKRQLRGRAEDLSRDRSYH
